# Results reported in US20180186871A1 (SINGAPORE HEALTH SERVICES PTE, published 2018).
# Numbering of substitutions follows the chain as printed.
# T1: human IL-11 (human, UniProt P20809 22-199)
# T1 sequence (looked up): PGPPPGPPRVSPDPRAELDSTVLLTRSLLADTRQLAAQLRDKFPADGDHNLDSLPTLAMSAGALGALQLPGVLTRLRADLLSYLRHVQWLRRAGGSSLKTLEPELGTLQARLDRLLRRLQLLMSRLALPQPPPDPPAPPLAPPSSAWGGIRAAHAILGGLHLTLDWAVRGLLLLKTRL
# B1: YU112-C03 (scFv, not shown: a dimerising Fc or GST)
# scFv: QVQLVESGGGVVQPGRSLRLSCAASGFTFSSYGMHWVRQAPGKGLEWVAVISYDGSNKYYADSVKGRFTISRDNSKNTLYLQMNSLRAEDTAVYYCAKGGKSYYGFDYWGQGTLVTVSSGSASAPKLEEGEFSEARVDSVMTQSPSSLSASVGDRVTITCRASQAINSYLNWYQQKPGKAPKLLIYAASSLQSGVPSRFSGSGSGTDFTLTISGLQPEDFATYYCQQSYSTPSWTFGQGTKVEIK
# B2: YU112-H02 (scFv)
# scFv: QVQLVESGGGVVQPGRSLRLSCAASGFTFSSYGMHWVRQAPGKGLEWVAVISYDGSNKYYADSVKGRFTISRDNSKNTLYLQMNSLRAEDTAVYYCAKLSGPNGVDYWGQGTLVTVSSGSASAPKLEEGEFSEARVQPVLTQPRSVSGSPGQSVTISCTGTSSDVGGYNYVSWYQQHPGKAPKVMIYDVSKRPSGVPDRFSGSKSGNTASLTISGLQAEDEADYYCCSYAGSYTWVFGGGTKLTVL
# B3: YU100-A10 (scFv)
# scFv: EVQLVESGGGVVQPGRSLRLSCAASGFTFSSYGMHWVRQAPGKGLEWVAVISYDGSNKYYADSVKGRFTISRDNSKNTLYLQMNSLRAEDTAVYYCAKIGATDPLDYWGQGTLVTVSSGSASAPKLEEGEFSEARVLPVLTQPASVSGSPGQSITISCTGTSSDVGAYNYVSWYQQHPGKAPELMIYDVSNRPSGVSNRFSGSKSGNTASLTISGLQPEDEADYYCSSFTTSIAWVFGGGTKLTVL
# B4: YU112-H01 (scFv)
# scFv: QVQLVESGGGVVQPGRSLRLSCAASGFTFGSYGMHWVRQAPGKGLEWVAVISYDGSNKYYADSVKGRFTISRDNSKNTLYLQMNSLRAEDTAVYYCAKGSYYFDYWGQGTLVTVSSGSASAPKLEEGEFSEARVETTLTQSPGTLSLSPGERATLSCRASQSVSSSYLAWYQQKPGQAPRLLIYGASSRATGIPDRFSGSGSGTDFTLTISSLQPDDFATYYCQQSYSTPTWTFGQGTKVEIK
# B5: YU100-G07 (scFv)
# scFv: QVQLVESGGGVVQPGRSLRLSCAASGFTFSSYGMHWVRQAPGKGLEWVAVISYDGSNKYYADSVKGRFTISRDNSKNTLYLQMNSLRAEDTAVYYCAKIGATDPLDYWGQGTLVTVSSGSASAPKLEEGEFSEARVQSALTQPASVSGSPGQSITISCTGTSSDVGAYDYVSWYQQHPGKAPKLMIYDVTNRPSGVSNRFSGSKSGNTASLTISGLQAEDEADYYCASYTRSSVWVFGGGTKLTVL
# B6: YU100-G10 (scFv)
# scFv: QVQLVQSGGGVVQPGRSLRLSCAASGFTFSSYGMHWVRQAPGKGLEWVAVISYDGSNKYYADSVKGRFTISRDNSKNTLYLQMNSLRAEDTAVYYCAKIGATDPLDYWGQGTLVTVSSGSASAPKLEEGEFSEARVQSALTQPASVSGSLGQSITMSCTGTRRDVGGYDFVSWYQQYPGKAPKLIIYDVSNRPSGVSNRFTGSKSGNTASLTISGLQAEDEADYYCCSYAGTYTWVFGGGTKVTVL
# B7: YU100-F01 (scFv)
# scFv: QVQLVQSGGGVVQPGRSLRLSCAASGFTFSSYGMHWVRQAPGKGLEWVAVISYDGSNKYYADSVKGRFTISRDNSKNTLYLQMNSLRAEDTAVYYCAKIGATDPLDYWGQGTLVTVSSGSASAPKLEEGEFSEARVQSALTQPASVSGSPGQSITISCTGTGSDVGAYDYVSWYQQHPGKAPKLMIYDVNNRPSGVSNRFSGSKSGNTASLTISGLQAEDEAEYYCSSFATSISWVFGGGTRLTVL
# B8: YU112-F05 (scFv)
# scFv: EVQLVQSGGGVVQPGRSLRLSCAASGFTFGSYGMHWVRQAPGKGLEWVAVISYDGSNKYYADSVKGRFTISRDNSKNTLYLQMNSLRAEDTAVYYCAKIGATDPLDYWGQGTLVTVSSGSASAPKLEEGEFSEARVQSALTQPRSVSGSPGQSVTISCTGTSSDVGGYNYVSWYQQHPGKAPKLIIYDVNNRPSGVSNRFSASKSGNTASLTISGLQAEDEADYYCNSYTSGSTWVFGGGTKLTVL
# B9: YU100-E08 (scFv)
# scFv: QVQLVQSGGGVVQPGRSLRLSCAASGFTFSSYAMHWVRQAPGKGLEWVAVISYDGSNKYYADSVKGRFTISRDNSKNTLYLQMNSLRAEDTAVYYCARIMGYDYGDYDVVDYWGQGTLVTVSSGSASAPKLEEGEFSEARVQSALTQPRSVSGSPGQSVTISCTGTSSDVGGYNYVSWYQQHPGKAPKLMIYDVSRRPSGVPDRFSGSKSGNTASLTISGLQAEDEADYYCCSYAGNYTWMFGGGTKLTVL
# B10: YU100-H02 (scFv)
# scFv: B9 scFv with V5Q, A33G, G153R, G172T, R196K, N237F, M241V
# B11: YU100-H09 (scFv, not shown: a dimerising Fc or GST)
# scFv: B9 scFv with R149A, V159I, R196N, P202S, D203N, N237S, M241V
# B12: YU100-E09 (scFv)
# scFv: B9 scFv with Q6E, G172D, N174D, M190I, S195T, R196K, V201I, N237S, M241V, G244R
# B13: YU100-F07 (scFv)
# scFv: QVQLVESGGGVVQPGRSLRLSCAASGFTFSSYAMHWVRQAPGKGLEWVAVISYDGSNKYYADSVKGRFTISRDNSKNTLYLQMNSLRAEDTAVYYCARIMGYDYGDYDVVDYWGQGTLVTVSSGSASAPKLEEGEFSEARVQSALTQPRSVSVSPGQSVTISCTGTSSDVGGYEYVSWYQQHPGKAPKLMIYDVTKRPSGVPDRFSGSKSGNTASLTISGLQGEDAADYYCCSYAGSYTWVFGGGTTVTVL
# B14: YU100-H04 (scFv)
# scFv: B9 scFv with Q6E, R149A, V159I, V170I, G172V, R196K, N237S, M241V
# B15: YU112-C05 (scFv, not shown: a dimerising Fc or GST)
# scFv: B13 scFv with Q1E, V153G, S167I, E174N, G223A, A226E, D228G, C232S, T247E, V248L
# B16: YU100-B08 (scFv)
# scFv: EVQLVQSGGGVVQPGRSLRLSCAASGFTFSSYGMHWVRQAPGKGLEWVAVISYDGSNKYYADSVKGRFTISRDNSKNTLYLQMNSLRAEDTAVYYCAKIGATDPLDYWGQGTLVTVSSGSASAPKLEEGEFSEARVQSALTQPASVSGSPGQSITISCTGTSSDVGGYNYVSWYQQHPGKVPRLLIYDVSNRPSGVSTRFSGSKSGNTASLTISGLQGEDEAEYYCSSFTSSTTWVFGGGTKLTVL
# B17: YU100-E05 (scFv)
# scFv: EVQLVQSGGGVVQPGRSLRLSCAASGFTFSSYGMHWVRQAPGKGLEWVAVISYDGSNKYYADSVKGRFTISRDNSKNTLYLQMNSLRAEDTAVYYCAKIGATDPLDYWGQGTLVTVSSGSASAPKLEEGEFSEARVQAVLTQPRSVSGSPGQSVTISCTGTSSDVGGYNYVSWYQQHPGKAPKLMIYDVSKRPSGVPDRFSGSKSGNTASLTISGLQAEDEADYYCCSYAGSYSWVFGGGTKLTVLGQPKAAPSVTLFPPSS
# B18: YU100-D05 (scFv)
# scFv: QVQLQQSGGGVVQPGRSLRLSCAASGFTFSSYGMHWVRQAPGKGLEWVAVISYDGSNKYYADSVKGRFTISRDNSKNTLYLQMNSLRAEDTAVYYCAKIGATDPLDYWGQGTLVTVSSGSASAPKLEEGEFSEARVQSALTQPASVSGSPGQLITISCTGTNSDVGGYNYVSWYQQHPGKAPKLMIYDVSNRPSGVSNRFSGSKSGNTASLTISGLQAEDEADYYCCSYAGSYTWVFGGGTKLTVLGQPKAAPSVTLFPPSS
# B19: YU100-D02 (scFv)
# scFv: B17 scFv with E1Q, Q3R, A138S, V139A, S163G, G167T, Y187F, C227N, S234T
# Target: T1, human IL-11
# Assay: cell-based or functional assay
# Also: test concentration or dose not given here.
"MMP2 production (ng/ml), TGFB1-stimulated human atrial fibroblasts, Experiment 1 (NEG 42.7, POS 70.2) [ng/mL]","MMP2 production (ng/ml), TGFB1-stimulated human atrial fibroblasts, Experiment 2 (NEG 36.2, POS 62.3) [ng/mL]",Binder
57.6,53.3,B1
65.3,58,B2
52.1,50.1,B3
51.9,47.7,B4
59,49.7,B5
54,45.4,B6
52.8,39.9,B7
53.9,48.5,B8
48.2,59.7,B9
57.5,51.3,B10
52.9,39.6,B11
51.7,44.4,B12
53.1,46.6,B13
58.5,48.7,B14
55.2,50.1,B15
55.3,40.6,B16
56.3,50.2,B17
53.3,48.8,B18
49.6,42.2,B19
